Legend:
[1] = system: His-TRIM25 (Homo sapiens); assay: EMSA; conditions: 3 mM Mg2+, 0.5 mM ATP; EMSA: 4.8 mM Tris pH 8, 144 mM NaCl, 0.96 mM DTT, 3 mM MgCl2, 0.5 mM ATP, 37.5 mM creatine phosphate, 16 uL, ~0.1 pmol RNA, 4 C 1 h; pull-down conditions not …
[2] = target: the molecule itself; assay: SEC-MALS; approximately 0.75 mg/mL on Superdex200 Increase 10/300 GL, 1.0 mL/min, 10 mM Tris (pH 8.0), 300 mM NaCl, 0.5 mM TCEP; self-association (tetramer)

Molecule	Kd [1]	stoichiometry N [2]
pre-let-7a-1	800 nM	
recombinant His-tagged TRIM25ΔRBD (lacking residues 470–508) (natural protein, human, UniProt Q14258 1-630, looked up) MAELCPLAEELSCSICLEPFKEPVTTPCGHNFCGSCLNETWAVQGSPYLCPQCRAVYQARPQLHKNTVLCNVVEQFLQADLAREPPADVWTPPARASAPSPNAQVACDHCLKEAAVKTCLVCMASFCQEHLQPHFDSPAFQDHPLQPPVRDLLRRKCSQHNRLREFFCPEHSECICHICLVEHKTCSPASLSQASADLEATLRHKLTVMYSQINGASRALDDVRNRQQDVRMTANRKVEQLQQEYTEMKALLDASETTSTRKIKEEEKRVNSKFDTIYQILLKKKSEIQTLKEEIEQSLTKRDEFEFLEKASKLRGISTKPVYIPEVELNHKLIKGIHQSTIDLKNELKQCIGRLQEPTPSSGDPGEHDPASTHKSTRPVKKVSKEEKKSKKPPPVPALPSKLPTFGAPEQLVDLKQAGLEAAAKATSSHPNSTSLKAKVLETFLAKSRPELLEYYIKVILDYNTAHNKKGIHYWEVELQKNNFCGVGICYGSMNRQGPESRLGRNSASWCVEWFNTKISAWHNNVEKTLPSTKATRVGVLLNCDHGFVIFFAVADKVHLMYKFRVDFTEALYPAFWVFSAGATLSICSPK		4
